Data on 11 molecules can be found in patent publication US8470576B2, “Group of novel enantioselective microbial nitrile hydratases with broad substrate specificity” (B.R.A.I.N. AG, priority 2006, dated 2013).

Common to all, as to assay type: biochemical
Data set [1] relates to NHase from Raoultella terrigena, 77.1. As to the kind of experiment: Substrate spectrum, relative activity of the NHase from strain 77.1. As to conditions: cell free crude cell extracts; 2-phenylpropionitrile set to 100%. The procedure:
(§1) If not otherwise indicated enzyme samples were prepared as follows: the cells from 1 ml of the culture were washed with 50 mM Tris/HCl pH 7.5 and resuspended in 750 μl of the same buffer. This suspension was incubated at 30° C. in a thermomixer at 1000 rpm. The biotransformation was started by addition of the substrate 2-phenylpropionitrile (PPN) in 50 mM Tris/HCl pH 7.5. The concentration of the substrate was 1 mM, if not otherwise stated. The reaction was stopped after 1 min, 5 min or 10 min as indicated by addition of 1 M HCl. Cells were removed by centrifugation and the supernatant analysed by HPLC for the presence of the corresponding amide. The HPLC analysis was carried out on a system comprising a Surveyor 4 channel Pump, AutoSampler and UVNIS detector at 210 nm from Thermo Finnigan on a Grom-Sil 1200DS-3 cp 3 μm (125×4.6 mm) reverse phase column. As mobile phase, acetonitrile and 0.3% H3PO4 were used in a ratio of 50:50 at a flow of 0.7 ml/min, respectively.
(§2) For the enzyme according Seq ID No. 2 and 4 (Raoultella terrigena, 77.1) and Seq ID. No. 18 and 20 (Klebsiella oxytoca, 38.1.2) the substrate spectrum was determined. The activities were compared to the activity towards 2-phenylpropionitrile which was set to 100%. Both enzymes are capable of the conversion of aliphatic as well as aromatic substrates.

The subject of data set [2] is NHase from Klebsiella oxytoca, 38.1.2. The experiment in a line: Substrate spectrum, relative activity of the NHase from strain 38.1.2. As to conditions: lyophilized cells; 2-phenylpropionitrile set to 100%. The protocol:
as §1, §2

Data set [3] is described as follows: Enantioselectivity of NHases towards rac-2-phenylpropionitrile (washed cells, chiral HPLC). The conditions noted are these: for E-value: kinetic resolution of rac-2-phenylpropionitrile; for enantiopreference: rac-2-phenylpropionitrile. The procedure: (§3) For the determination of enantioselectivity towards rac-mandelonitrile and 2-phenylpropionitrile 40-50 mg of washed cells were resuspended in 1 ml of 50 mM Tris/HCl pH 7.5. 100 μl of cell suspension were mixed with 800 μl 50 mM Tris/HCl pH 7.5 and incubated at 30° C. in a thermomixer at 1000 rpm. The biotransformation was started by addition of 100 μl of 10 mM rac-mandelonitrile or rac-2-phenylpropionitrile in 50 mM Tris/HCl pH 7.5. The reaction was stopped by addition of 100 μl 1M HCl after 1, 5 or 10 min. Cells were removed by centrifugation and the supernatant analysed by chiral HPLC for the presence of mandeloamide and phenylpropionamide, respectively. rac-Mandeloamide was analysed on a HPLC comprising a Surveyor 4 channel Pump, AutoSampler and UVNIS detector at 210 nm from Thermo Finnigan on a Nucleodex β-OH column (Macherey & Nagel) using 50% methanol/water:water (40:60) as mobile phase at a flow rate of 0.7 ml/min. The apparent enantiomeric ratio (Eapp) of the conversion of mandelonitrile was calculated according to Straathof and Jongejan for asymmetric catalysis (see example 9). In case of 2-phenylpropionamide, the samples were lyophilized and resuspended in n-hexane: 2-propanol (80:20). Prior to injection, the samples were additionally dried with sodium sulfate and were centrifugated at 16,000 g for 5 min. The supernatants were analyzed using a Chiracel OD column (Daicel) on a Spectra System (AS3000, P2000, UV2000 at 210 nm) from Thermo Separation Products with n-hexane: 2-propanol (80:20) as mobile phase at a flow rate of 0.5 ml/min. The enantiomeric ratio (E) of the conversion of PPN was calculated according to Chen et al.

A short description of data set [4]: Activity of enzyme samples after heterologous expression of NHases in E. coli towards PPN. The conditions noted are these: 1 mM PPN; stopped after 1 min; host E. coli BL21 (DE3) (a) or E. coli Rosetta (DE3) (b). The procedure:
The amplified α-subunits were ligated to pET22b whereas the β-subunits were ligated to pET26b by use of the unique NdeI and XhoI restriction enzyme recognition sites. E. coli BL21 (DE3) or E. coli Rosetta (DE3) was cotransformed with the vectors carrying the genes for the corresponding α- and β-subunits of the NHases. Freshly transformed cells were grown over night at 37° C. in 5 ml LB-medium containing 100 μg/ml ampicillin, 25 μg/ml kanamycin and 2% (w/v) glucose. In case of E. coli Rosetta (DE3) 12.5 μg/ml chloramphenicol was additionally used. 1 ml of this culture was used to inoculate 100 ml of LB-medium containing 100 μg/ml ampicillin, 25 μg/ml kanamycin and 1% (w/v) glucose. Cells were incubated at 20° C. or 30° C. on a gyratory shaker at 100 rpm. At an optical density O.D.595=1 cells were induced by addition of 100 μg/ml IPTG. Simultaneously, CoCl2*6H2O was added in a concentration of 250 μM. When the P16K activator protein from the strain Brevibacterium linens was coexpressed with the corresponding NHase E. coli Rosetta (DE3) pET22—32B1α pET26—32B.1β pBBR5—32B_P16K was grown in LB-medium containing 100 μg/ml ampicillin, 25 μg/ml kanamycin, 12.5 μg/ml chloramphenicol and 10 μg/ml gentamycin and 1% (w/v) glucose. Samples were taken 24 h after induction.
as §1

Data set [5] is described as follows: Enantioselectivity of NHases towards rac-mandelonitrile (washed cells, chiral HPLC). As to conditions: for enantiopreference: (R/S)-mandelonitrile; for Eapp-value: kinetic resolution of (R/S)-mandelonitrile; for Eapp-value heterologously expressed / Eapp-value homologously expressed: rac-mandelonitrile; for Eapp-value heterologously expressed: heterologously expressed NHase; for Eapp-value homologously expressed: homologously expressed NHase. The procedure: as §3, with “al. […]” for “al.”

On to `CCC(C#N)c1ccccc1` (stereo not drawn) [2-phenyl-butyronitrile], for which the “rel. activity 77.1” value in data set [1] is 1%. The “rel. activity 38.1.2” value in data set [2] is 18%.

On to `CC(C#N)c1ccccc1` (stereo not drawn) [2-phenyl-propionitrile], for which the “rel. activity 77.1” value in data set [1] is on record as 100%. Also, in data set [2], the “rel. activity 38.1.2” value was 100%.

In the case of `N#Cc1cccnc1` [3-cyanopyridine], the “rel. activity 77.1” value in data set [1] is reported as 21%.

Consider `N#Cc1ccccc1` [benzonitrile], for which, in data set [1], the “rel. activity 77.1” value amounted to 18%. In addition, the “rel. activity 38.1.2” value in data set [2] is reported as 25%.

`N#CC(O)c1ccccc1` (stereo not drawn) [mandelonitrile]: in data set [1], the “rel. activity 77.1” value is listed as 5%. For the same molecule, in data set [2], the “rel. activity 38.1.2” value came to 9%.

With `N#CCc1ccccc1` [phenyl-acetonitrile], the “rel. activity 77.1” value in data set [1] stood at 1%. Besides, the “rel. activity 38.1.2” value in data set [2] is listed as 1%.

As for butyronitrile, the “rel. activity 77.1” value in data set [1] worked out at 242%. For the same molecule, the “rel. activity 38.1.2” value in data set [2] is reported as 281%.

Turning to methacrylonitrile, the “rel. activity 77.1” value in data set [1] came to 109%. Besides, in data set [2], the “rel. activity 38.1.2” value turned out to be 138%.

B1: NHase Seq ID No. 10 and 12: nitrile hydratase of Pantoea sp. strain 17.3.1, α-subunit SEQ ID NO 10, β-subunit SEQ ID NO 12 (protein)
alpha: MSNHDVLPSESALKVRAIQSLLTEKGLLDPQTSDAIVDYFENKIGPRNGASVVARAWLDAEFKKKLLEDGTTAISEMGFSGAEGAVIHVLENTDAVHNIVVCTLCSCYPWPVLGLPPIWFKSAQYRSRVVIDPRGVLKEFGTELPPEKEIRVWDSNAEIRYFVLPQRPAGTENLSEEQLAARVTRDSMIGTGIL
beta: MNGIHDCGGMQNLGAIPLEENEPVFHAEWEKAILVMTINGFLSGSILVDNFRHQIEKMPASEYLLTSYYEHWVFAMEHLLINNNTITREALESRMAELAERVEMSAIAKETFLELIKTTPNYHRESDAIARFAPGDTIRTCELNTPGHTRLPRYARDKTGVIIAMYGVCVFPDSLTRDGSEDPQHVYLVQFSSADLWGAGSEPFTVSLSLFESYIAEKVE
modifications: Pantoea sp., strain 17.3.1
On to B1, for which, in data set [3], the E-value is on record as 2 and the enantiopreference result was “(S)”. In data set [4], this molecule showed a spec. activity of 0.4 μkat/g cdw and a vol. activity of 0.6 μkat/L cultur. In data set [5], the enantiopreference entry is on record as “(S)”, the Eapp-value stood at 4, the Eapp-value heterologously expressed was 4 and the Eapp-value homologously expressed is listed as 5.

B2: NHase Seq ID No. 14 and 16: nitrile hydratase of Brevibacterium linens strain 32B.1, α-subunit SEQ ID NO 14, β-subunit SEQ ID NO 16 (protein)
alpha: MSDKIRSQEEIAARVKALESMLIEKGIMTTQAIDRLVEIYENEVGPQLGAKVVAKAWSDPGFKSRLLTDATGACGELGIGGLQGEDMVVVEDTDTVHNVIVCTLCSCYPWPVLGLPPNWYKDPQYRAAICREPRKVLSESFGYTVSNDVEIRVWDSSSEMRYWVLPRRPDGTDGWTEDQLADLVSRDSMIGVGPTAKAQS
beta: MNGVFDLAGTDGLGPVVVPDDEPIFRAEWEKAAFGMFSMCFRGGFFGVDQFRYGMEQIDPAVYLKSPYYEHWIHTVEYHGERTGQLDLDELDRRTEYYLANPDAPMPEHADDPELLAFINAVVPAGAPAKRESDKIARFQVGDTVKVLRDSPRGHTRRARYIRGATGEIVLAHGTFIYPDTAGNNLGECPEHVYTVRFTAEELWGAETAEPNQSVYFDVWDPYIELVTPRGAQSA
modifications: Brevibacterium linens, strain 32B.1
For the molecule B2, in data set [3], the E-value was determined as 8 and the enantiopreference result is “(S)”. For the same molecule, in data set [4], the spec. activity is 16.9 μkat/g cdw and the vol. activity is 25.3 μkat/L cultur. In addition, in data set [5], the enantiopreference entry was “(S)”, the Eapp-value was 4, the Eapp-value heterologously expressed is 4 and the Eapp-value homologously expressed is reported as 4.

B3: NHase Seq ID No. 6 and 8: nitrile hydratase of Raoultella terrigena strain 37.1, α-subunit SEQ ID NO 6, β-subunit SEQ ID NO 8 (protein)
alpha: MSHKHDHDHTEPPIDIELRVRALESLLQEKGLIDPAALDELIDTYEHKVGPRNGAQVVARAWSDPEYKRRLMENATAAISELGFSGIQGEDMLVVENTPDVHNVTVCTLCSCYPWPVLGLPPVWYKSAPYRSRIVIDPRGVLAEFGLHIPESKEIRVWDSSAELRYLVLPERPAGTDGWSEAQLSELISRDSMIGTGVVTAP
beta: MNGIHDLGGMHGFGPIPTEENEPYFHHEWERRVFPMFASLFVGGHFNVDEFRHSIECMPPADYLQSSYYEHWLHAFETLLLAKGVITVDELWGGAKPTLCKPGTPVLTQDMVSMVVSTGGSARVSHDVAPRFRVGDRVRTKNFNPTTHTRLPRYARDKVGRIEIAHGVFITPDTAAHGLGEHPQHVYSVSFTAQELWGEPRPDNVFIDLWDDYLEEA
modifications: Raoultella terrigena, strain 37.1
In the case of B3, in data set [3], the E-value was 47 and the enantiopreference entry is given as “(S)”. In data set [4], this molecule came in with a spec. activity of 2.8 μkat/g cdw and a vol. activity of 5.5 μkat/L cultur. Moreover, in data set [5], the enantiopreference result is “(S)”, the Eapp-value is on record as 18, the Eapp-value heterologously expressed came to 18 and the Eapp-value homologously expressed was 17.
